Assay [1] concerns the target His6-MKK7 Kinase Domain (MKK7_KD, residues 101–405, Ser271Asp and Thr275Asp) (UniProt O14733). The assay is described as follows: other fluorescence titration; tryptophan fluorescence quenching; 1.25 μM MKK7_KD in 10 mM phosphate buffer pH 7.5, peptide added stepwise, 25.0 °C, excitation 295 nm, emission read at 333 nm.
The target in assay [2] is T1, Recombinant His6-GADD45β, O75293.
T1 chain: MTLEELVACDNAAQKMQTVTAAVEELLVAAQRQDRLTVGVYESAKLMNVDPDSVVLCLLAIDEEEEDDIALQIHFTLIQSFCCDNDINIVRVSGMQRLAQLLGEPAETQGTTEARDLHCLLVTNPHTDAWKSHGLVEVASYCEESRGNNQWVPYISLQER
The assay is described as follows: cross-linking; SDA reacted first with GADD45β (preliminary reaction order), then photo-cross-linking. Particulars: remark: other sources report otherwise.

In assay [3] the target is T2, His6-MKK7 Kinase Domain (MKK7_KD, residues 101–405, Ser271Asp and Thr275Asp) (UniProt O14733 101-405, Ser271Asp | Thr275Asp).
T2 construct: Theoretical mass with tag is printed as 36194.8 Da; In the GADD45β cross-linking experiment this protein was first labelled on amines with SDA (NHS-diazirine); also called MKK7_KD 101–405; MKK7_KD (101–405); source: E. coli BL21(DE3), pETDuet-1, purified (His-Trap, Superdex 75 gel filtration)
T2 sequence (looked up): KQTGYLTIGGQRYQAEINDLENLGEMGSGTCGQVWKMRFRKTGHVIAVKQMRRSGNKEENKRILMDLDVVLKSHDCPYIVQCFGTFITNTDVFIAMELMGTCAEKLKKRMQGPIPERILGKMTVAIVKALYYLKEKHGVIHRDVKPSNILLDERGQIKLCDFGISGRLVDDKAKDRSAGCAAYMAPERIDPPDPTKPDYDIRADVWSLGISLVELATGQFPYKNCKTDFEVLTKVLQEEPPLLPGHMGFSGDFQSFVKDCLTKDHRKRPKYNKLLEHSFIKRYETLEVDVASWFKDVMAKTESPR
Put plainly: ELISA; MKK7_KD coated on polystyrene wells at 100 nM; biotinylated GADD45β at 10–160 nM; detection with Streptavidin-HRP; 1:1 curve fit. The note with it: both partners purified. A general note: In an ELISA, binding on a coated surface is turned into a signal by an enzyme label.

Assay [4] addresses T2, His6-MKK7 Kinase Domain (MKK7_KD, …). Put plainly: SPR; Biacore3000; GADD45β covalently immobilised on a CM5 chip (EDC/NHS, pH 3.5), soluble MKK7_KD injected; KD averaged over the values at the various concentrations. The note with it: both partners purified. On the technique in general: SPR reads the build-up and loss of mass on a sensor chip optically.

In the case of “DTP3 (Ac-D-Tyr-D-Arg-D-Phe-NH2) (peptide)”, in assay [1], the Kd (usually the equilibrium constant for the complex coming apart) was determined as 100 nM.

B1: Recombinant His6-GADD45β, O75293 1-160 (natural protein)
chain: T1 chain
As to B1, the stoichiometry N – broadly, a count of units in the complex or per binding partner – in assay [2] worked out at 2.

B2: biotinylated GADD45β (natural protein, UniProt O75293 1-160, looked up)
chain: T1 chain
modifications: biotin (site not stated)
notes: GADD45β, UniProt O75293, 160 amino acids; as m1, biotinylated; also called biotin-GADD45β; biotinylated variant of GADD45β; source: E. coli BL21(DE3), pET28a, purified (His-Trap, gel filtration), biotinylated
B2 came in with a Kd in assay [3] of roughly 30 nM.

B3: Recombinant His6-GADD45β (natural protein, UniProt O75293 1-160, looked up)
chain: T1 chain
notes: GADD45β, UniProt O75293, 160 amino acids; The theoretical mass of the tagged protein is printed as 19196.6 Da, against 17,818 Da for the 160-residue protein; also called Growth arrest and DNA-damage-inducible GADD45-family member GADD45β; source: E. coli BL21(DE3), pET28a, purified (His-Trap, Superdex 75 gel filtration)
For the molecule B3, the Kd in assay [4] is roughly 6 nM.
